B1: S009-F2.58.8 (antibody, human IgG1, kappa, V domains shown)
VH: QVQLLQSGAELAKPGASVKLSCKASGYTFTSYWVHWVKQRPGQGLEWIGYINPNSGYTKYNQKFKDKATLTADKSSSTAYMQLSSLTYEDSAVYYCADHYYGSSRDYFDYWGQGTTLTVSS
VL: QIVLTQSPAIMSASPGEKVTMTCSASSSVSYMYWYQQRPGSSPRLLIYDTSNLASGVPVRFSGSGSGTSYSLTISRMEAEDAATYYCQQWNSYPYTFGGGTKLEIKR
notes: Human-murine chimeric antibody: murine VH/VL on human IgG1 heavy and kappa light constant regions
B2: S009-F2.39.3 (antibody, human IgG1, kappa, V domains shown)
VH: QVQLQQPGTELVKPGASVKLSCKASGYTFTNYWMHWVKQRPGQGLEWIGNINPSSGDSYYNERFMSKAKMTVDKSSSTAYMQLSSLTSEDSAVYYCARSGGLWLAFWGPGTLVTVSA
VL: DIVMTQSPSSLAMSVGQKVTMSCKSSQTLLNSVSQNNYLAWYQQKPGQSPTLLVYFASTRESGVPDRFIGGGSGTDFTLTISSVQAEDLADYFCQQHYRTPYTFGGGTNLEIKR
notes: as for B1
B3: S009-F2.38.12 (antibody, human IgG1, kappa, V domains shown)
VH: QVQLQQPGTELVKPGASVKLSCKASGYTFTSYWMHWVKQRPGQGLEWIGNINPSNGGTNYNEKIKNKATLTVDKSSSTAYMQLSSLTSEDSAVYYCARWNYYGNYPFDYWGQGTTLTVSS
VL: DIVMTQSQKFMSTTVGDRVSITCKASQNVGTAVAWYQQKPGQSPKLLIYSASNRYTGVPDRFTGSGSGTDFTLTISNMQSEDLADYFCQQYSSYPLTFGAGTKLELKR
notes: as for B1
B4: S009-F2.47.1 (antibody, human IgG1, kappa, V domains shown)
VH: QVQLQQPGAELVKPGASVKLSCKASGYTFTSYWMHWVKQRPGQGLEWIGMIHPNSGSTNYNEKFKSKATLTVDKSSSTAYMQLSSLTSEDSAVYYCARPVVPYWYFDVWGTGTTVTVSS
VL: B3 VL with Y91S
notes: as for B1
B5: S009-F2-56.12 (antibody, human IgG1, kappa, V domains shown)
VH: DVQLQESGPGMVKPSQSLSLTCTVTGYSITSGYDWHWIRHFPGNKLEWMGYISYSGSTNYNPSLKSRISITHDTSKNHFFLKLKSVTTEDTATYYCARGTGPDYWGQGTTLTVSS
VL: DIVMTQSQKFMSTSVGDRVSITCKASQNVRTAVAWYQQKPGQSPKALIHLPSNRHTGVPDRFTGSGSGTDFTLTISNVQSEDLADYFCLQHWNYPLTFGGGTKLEIKR
notes: as for B1

Substitutions are numbered along the chain they refer to.

The target of one test is T1, human MSLN-R2-his protein (human, UniProt Q13421 391-486).
T1 construct: Self-made in HEK293E cells; also called human MSLN-R2 protein; hMSLN-R2-his; not shown: His tag
T1 sequence (Q13421 other isoform, or with tags, fused parts or gaps): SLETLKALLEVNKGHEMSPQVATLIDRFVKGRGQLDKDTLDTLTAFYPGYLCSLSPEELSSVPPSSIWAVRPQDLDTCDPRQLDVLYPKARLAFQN
Nature of the test: ELISA on coated antigen, antibody 0.0001 nM. (In general: In an ELISA, binding on a coated surface is turned into a signal by an enzyme label.)
With B1, the OD450 is 0.05 OD450.
The molecule B2 yielded an OD450 of 0.05 OD450.
The same measure, in the same setting: then B3, with 0.05 OD450.
Still for that read-out and setting: then B4, with 0.05 OD450; and B5, with 0.06 OD450.

A further test addresses T2, human MSLN-R3-3 polypeptide (human).
T2 construct: also called human MSLN-R3-3 protein; hMSLN-R3-3
The test can be described thus: ELISA on coated antigen, antibody 0.001 nM.
Method: (§1) The plate was sealed with a plastic film and incubated at 4° C. overnight. The next day, the plate was washed twice with PBST, and a blocking buffer [PBS+2% (w/w) BSA] was added for blocking at room temperature for 2 h. The blocking buffer was discarded, and a chimeric antibody or negative control antibody serially diluted from 100 nM was added at 50 μL/well. After incubation at 37° C. for 2 h, the plate was washed 3 times with PBST. […] After incubation at 37° C. for 2 h, the plate was washed 5 times with PBST. A TMB substrate was added at 50 μL/well for incubation at room temperature for 5-10 min, and then a stop solution (1.0 N HCl) was added at 50 μL/well.
B1 yielded an OD450 of 0.06 OD450.
Still for that read-out and setting: then B2, with 0.05 OD450; and B3, with 0.05 OD450; and B4, with 0.06 OD450.
The same measure, in the same setting: as for B5, the figure is 0.06 OD450.

The target of another test is T1, human MSLN-R2-his protein. The test can be described thus: ELISA on coated antigen, no antibody (column none).
Method: as §1
As to B1, the OD450 amounted to 0.06 OD450.
The same measure, in the same setting: as for B2, the figure is 0.06 OD450.
In turn, B3 gave an OD450 of 0.06 OD450.
As to B4, the OD450 came to 0.06 OD450.
In turn, B5 had an OD450 of 0.07 OD450.

The target in another test is T3, human MSLN-R3-his protein (human, UniProt Q13421 487-598).
T3 construct: Self-made in HEK293E cells; also called human MSLN-R3 protein; hMSLN-R3-his; not shown: His tag
T3 sequence (Q13421 495-606): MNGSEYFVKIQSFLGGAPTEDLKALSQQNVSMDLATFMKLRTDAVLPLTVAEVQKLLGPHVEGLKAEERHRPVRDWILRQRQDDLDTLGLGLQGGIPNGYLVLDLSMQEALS
The test can be described thus: ELISA on coated antigen, antibody 10 nM.
B1: the OD450 was determined as 0.05 OD450.
Still for that read-out and setting: then B2, with 0.98 OD450; and B3, with 0.05 OD450; and B4, with 0.05 OD450.
Same read-out and setting: then B5, with 0.07 OD450.

A further test concerns the target T3, human MSLN-R3-his protein. Nature of the test: ELISA on coated antigen, antibody 1 nM.
Method: as §1
In the case of B1, the OD450 was 0.05 OD450.
With B2, the OD450 is 0.25 OD450.
Take B3: the OD450 was 0.05 OD450.
Turning to B4, the OD450 was 0.05 OD450.
On the same count and under the same terms, as for B5, the figure is 0.06 OD450.

In the next test the target is T1, human MSLN-R2-his protein. The test can be described thus: ELISA on coated antigen, antibody 1 nM.
Method: as §1
Regarding B1, the OD450 was 2.04 OD450.
Still for that read-out and setting: as for B2, the figure is 0.05 OD450; as for B3, 0.05 OD450; as for B4, 0.05 OD450.
Still for that read-out and setting: as for B5, the figure is 0.06 OD450.

The next test deals with T3, human MSLN-R3-his protein. The test can be described thus: ELISA on coated antigen, antibody 100 nM.
Method: as §1
As for B1, the OD450 worked out at 0.07 OD450.
The same measure, in the same setting: then B2, with 1.84 OD450.
On the same count and under the same terms, as for B3, the figure is 0.06 OD450.
Same read-out and setting: then B4, with 0.06 OD450; and B5, with 0.13 OD450.

The target in another test is T2, human MSLN-R3-3 polypeptide. Nature of the test: ELISA on coated antigen, antibody 10 nM.
Method: as §1
Molecule B1 returned an OD450 of 0.06 OD450.
B2 returned an OD450 of 0.05 OD450.
Still for that read-out and setting: as for B3, the figure is 0.05 OD450; as for B4, 0.06 OD450; as for B5, 0.07 OD450.

Another test has as its target T3, human MSLN-R3-his protein. Nature of the test: ELISA on coated antigen, antibody 0.1 nM.
Method: as §1
Take B1: the OD450 came to 0.05 OD450.
The same measure, in the same setting: as for B2, the figure is 0.07 OD450; as for B3, 0.05 OD450; as for B4, 0.05 OD450.
Still for that read-out and setting: then B5, with 0.05 OD450.

A further test concerns the target T1, human MSLN-R2-his protein. Nature of the test: ELISA on coated antigen, antibody 0.1 nM.
Method: as §1
B1: the OD450 stood at 0.63 OD450.
Still for that read-out and setting: then B2, with 0.05 OD450; and B3, with 0.05 OD450.
On the same count and under the same terms, then B4, with 0.05 OD450.
Same read-out and setting: then B5, with 0.06 OD450.

In another test the target is T1, human MSLN-R2-his protein. The test can be described thus: ELISA on coated antigen, antibody 100 nM.
Method: as §1
In the case of B1, the OD450 was 2.63 OD450.
Molecule B2 yielded an OD450 of 0.06 OD450.
Still for that read-out and setting: then B3, with 0.06 OD450.
Same read-out and setting: as for B4, the figure is 0.06 OD450.
Same read-out and setting: then B5, with 0.17 OD450.

In another test the target is T1, human MSLN-R2-his protein. The test can be described thus: ELISA on coated antigen, antibody 0.001 nM.
Method: as §1
With B1, the OD450 is 0.06 OD450.
The same measure, in the same setting: as for B2, the figure is 0.05 OD450; as for B3, 0.05 OD450.
Take B4: the OD450 worked out at 0.05 OD450.
On the same count and under the same terms, as for B5, the figure is 0.06 OD450.

The next test concerns the target T2, human MSLN-R3-3 polypeptide. The test can be described thus: ELISA on coated antigen, antibody 0.01 nM.
Method: as §1
In the case of B1, the OD450 is 0.06 OD450.
On the same count and under the same terms, then B2, with 0.05 OD450; and B3, with 0.05 OD450.
Same read-out and setting: then B4, with 0.05 OD450; and B5, with 0.05 OD450.

The target in the next test is T3, human MSLN-R3-his protein. The test can be described thus: ELISA on coated antigen, antibody 0.0001 nM.
Method: as §1
Regarding B1, the OD450 is 0.05 OD450.
B2 had an OD450 of 0.05 OD450.
Still for that read-out and setting: as for B3, the figure is 0.05 OD450; as for B4, 0.05 OD450.
Same read-out and setting: as for B5, the figure is 0.05 OD450.

In the next test the target is T2, human MSLN-R3-3 polypeptide. Nature of the test: ELISA on coated antigen, antibody 0.1 nM.
Method: as §1
As to B1, the OD450 amounted to 0.06 OD450.
The same measure, in the same setting: then B2, with 0.05 OD450.
The same measure, in the same setting: then B3, with 0.05 OD450; and B4, with 0.06 OD450.
The same measure, in the same setting: as for B5, the figure is 0.06 OD450.

Another test deals with T3, human MSLN-R3-his protein. The test can be described thus: ELISA on coated antigen, no antibody (column none).
Method: as §1
B1: the OD450 stood at 0.05 OD450.
As to B2, the OD450 turned out to be 0.05 OD450.
Still for that read-out and setting: then B3, with 0.05 OD450; and B4, with 0.05 OD450.
On the same count and under the same terms, as for B5, the figure is 0.06 OD450.

The next test concerns the target T2, human MSLN-R3-3 polypeptide. The test can be described thus: ELISA on coated antigen, no antibody (column none).
Method: as §1
B1 displayed an OD450 of 0.06 OD450.
For the molecule B2, the OD450 came out at 0.05 OD450.
Still for that read-out and setting: as for B3, the figure is 0.05 OD450; as for B4, 0.06 OD450; as for B5, 0.07 OD450.

The target in another test is T3, human MSLN-R3-his protein. The test can be described thus: ELISA on coated antigen, antibody 0.001 nM.
Method: as §1
The molecule B1 yielded an OD450 of 0.05 OD450.
Still for that read-out and setting: then B2, with 0.05 OD450; and B3, with 0.05 OD450; and B4, with 0.05 OD450.
For the molecule B5, the OD450 is 0.05 OD450.

Another test deals with T2, human MSLN-R3-3 polypeptide. The test can be described thus: ELISA on coated antigen, antibody 1 nM.
Method: as §1
Take B1: the OD450 came to 0.06 OD450.
Still for that read-out and setting: as for B2, the figure is 0.05 OD450.
Molecule B3 had an OD450 of 0.05 OD450.
On the same count and under the same terms, then B4, with 0.05 OD450; and B5, with 0.06 OD450.

A further test deals with T3, human MSLN-R3-his protein. The test can be described thus: ELISA on coated antigen, antibody 0.01 nM.
Method: as §1
Regarding B1, the OD450 was 0.05 OD450.
The same measure, in the same setting: as for B2, the figure is 0.05 OD450; as for B3, 0.04 OD450; as for B4, 0.05 OD450.
Still for that read-out and setting: as for B5, the figure is 0.05 OD450.

Another test concerns the target T2, human MSLN-R3-3 polypeptide. Nature of the test: ELISA on coated antigen, antibody 0.0001 nM.
Method: as §1
As to B1, the OD450 was 0.05 OD450.
In turn, B2 yielded an OD450 of 0.05 OD450.
Take B3: the OD450 worked out at 0.05 OD450.
On the same count and under the same terms, then B4, with 0.05 OD450.
B5: the OD450 is 0.06 OD450.

Another test concerns the target T1, human MSLN-R2-his protein. Nature of the test: ELISA on coated antigen, antibody 0.01 nM.
Method: as §1
For B1, the OD450 was determined as 0.12 OD450.
Same read-out and setting: as for B2, the figure is 0.05 OD450; as for B3, 0.05 OD450.
Still for that read-out and setting: as for B4, the figure is 0.05 OD450; as for B5, 0.06 OD450.

In a further test the target is T1, human MSLN-R2-his protein. Nature of the test: ELISA on coated antigen, antibody 10 nM.
Method: as §1
Molecule B1 yielded an OD450 of 2.43 OD450.
Still for that read-out and setting: then B2, with 0.05 OD450; and B3, with 0.05 OD450; and B4, with 0.05 OD450.
On to B5, for which the OD450 worked out at 0.07 OD450.

The target in a further test is T2, human MSLN-R3-3 polypeptide. The test can be described thus: ELISA on coated antigen, antibody 100 nM.
Method: as §1
B1 gave an OD450 of 0.07 OD450.
Still for that read-out and setting: then B2, with 0.05 OD450.
On the same count and under the same terms, then B3, with 0.06 OD450; and B4, with 0.06 OD450; and B5, with 0.14 OD450.

These data come from US20250250357A1 (NANJING ZAIMING PHARMACEUTICAL, published 2025).
